# According to the DeepSol protein solubility set:
# Assay: soluble on expression in E. coli; label from the status in PepcDB or PDB records
row,Sequence,soluble on expression in E. coli
1,MGSDKIHHHHHHDDSVFTVMDDPSAAKKPFEGVVNAGYLAQSGNTKSSSMTADSTLTWYGNTTAWSLWGNASNTSSNDERSSEKYAVGGRSRYNLTDMNYVFGQGSWLTDRYNGYQQRDVVTAGYGRQILNGPVHSLRFEFGPGVRYDEYTDGDTDTQPLGYASGTWAWQMTDNAKFSQGVSVFGAEDTTVNSESALNVAINAHFALKVAYNVTWNSEPPASAPEHTDRRTSLSLGYKM,not soluble
2,MGSDKIHHHHHHALLGTTGLLHAPTADMQRDKTFLFGGNYLNTHPLSTHFRSSEVGYTFNYYINITIFPWLEVSYICTLVHADHGSTYFPEQSWGKFTNQDRAFSARLRLWKEGWWKEWTPQIVLGLDDPTSHADHGGGELVSGNTSGSNNYATRYYLAVTKHLDVQNIGEWGIHAAFVYGNAKGIEHYKRPSFGTNFRFQLLGDQPLIKVVNNLNLMAEYDARTVNIGAHYQLWKDHINLIAELNNGKYFSGGIYFKIHLK,not soluble
3,WLSPEIEALSHGTRLNNIDMYPALQRLLPWPEATNFEEFAPSHLSVPSGNQHRLDYSSGRPVIRVKLQECFGLEESPQLCGIPVQFHLLSPAGRPLAVTDDLRSFWSGPYSQVRAEMRGRYPKHPWPEDPWTAPATARTKNRM,not soluble
4,MGSDKIHHHHHHMPTAAAQENIRWEECPPQVDIASAQCGSIDVPMHYSDPSLGDISVGFVKVPAQGEKHGTIFGNSGGPGGDAYSFFGSQSMNWPEAMYQNYDLVAVQPRGMVGSTPVNCDNIAPGYDFLSLLTREGAFVKESCEIGTPGYTSSLTTDNTANDWERVRQALGDDKISIFGLSYGTYLGSVYATRYPQHTDKVVLDSAMAPSLAWNGIMASQEQGYKNSLNDFFTWVAENNDTYGLGTTPLAVYQNWSNKIVAETGTNPTVAPPPAQVGDVPPAFAWAGQAGADMMTATNPTSVQLQGLATQLLNPGSNQSLSPLLNVTRAYIPQPSTWPMLAGAISGQTPIPDVTDTGDDPYVIESINASVNMQRMVMCNENTVAPDPVAMARMAWTSMVTGDVFDIYSVKFSSGQACSGITPTSGRQPTDGSQLAVQPLLLQGTSDPQTPYWTHNELADAMNAHVVTVNGPGHGQSIGGTNQAINDIVVDYLRTGHTDATWVEGNTPTPITAG,not soluble
5,MSLNEETRKKKKRPSLTTLYEGTMKEITSNENRYIEFLNFASRVHKYSFDEQLLLYAQKQDVHMVATFDIWKKLGRFVKRGSTAALLFDYTTQQRKYVFDISETGGEPLQVFDWQLLDNDKNDLLRYWNTYEKQSGTLVNWEDGIHAKIASYQKPIGDQIHPFFVKDIEVVAAYIIYQRTNTLIPEDLLLDVQSVLQIGKRDNTLLEIQHFANLTAKEFLQDVERILNNELKKERVLYHDRIKFEDELSRREWQPASRDREGHHHHHH,not soluble
6,MLDPFSEKAKELLKEFGSMNEFLQAIPSLVDIEEVMNRLKFAKESEISEDILNIEDIRDLASFYAQIGALAYSPYGLELELVKKANLRIYTERIRRRRKIRSDEIGIEVKIAVEFPENDIKTLEKVYGGLPEYIVSLREFLDLVPDEKLSSYYVYDGNVYLRKDDLLKVWSKAFERNVEKAVNIIYEIRDELPEFYRRLAGEIRSFAEKEFSDKFREVQAGELKHHLFPPCVKNALRGVPQGMRNYAITVLLTSFLSYARICPNPPRRNVKIRDCIKDMRVITEEILPIIIEAGNRCSPPLFEDQPNEIKNIWYHLGFGYTANPTLEDSGNSTWYFPPNCDKIKANAPQLCTPDKHCRYIRNPLTYYLRRLYLEEKRRAKHADEGSDKGGKERILQLEHHHHHH,not soluble
7,MHCPFCFAVDTKVIDSRLVGEGSSVRRRRQCLVCNERFTTFEVAELVMPRVVKSNDVREPFNEEKLRSGMLRALEKRPVSSDDVEMAINHIKSQLRATGEREVPSKMIGNLVMEQLKKLDKVAYIRFASVYRSFEDIKEFGEEIARLED,soluble
8,GTSPIQTPINTMSQQYTLPPLPYPYDALQPYISQQIMELHHKKHHQTYVNGLNAALEAQKKAAEATDVPKLVSVQQAIKFNGGGHINHSLFWKNLAPEKSGGGKIDQAPVLKAAIEQRWGSFDKFKDAFNTTLLGIQGSGWGWLVTDGPKGKLDITTTHDQDPVTGAAPVFGVDMWEHAYYLQYLNDKASYAKGIWNVINWAEAENRYIAGDKGGHPFMKL,soluble
